What was measured:
[1] = target: IFN-γ receptor on 2C4 and mutant γ-1 cells (human HT1080-derived) (human) (UniProt P15260); assay: binding of 125I-labeled IFN-γ diluted to a lower specific activity, cells at 0° C.
[2] = target: IFN-γ receptor on 2C4 and mutant γ-1 cells (human HT1080-derived) (human) (UniProt P15260); assay: binding of 125I-labeled IFN-γ to 10^6 2C4 or γ-1 cells, 90 min at 0° C., non-specific binding subtracted

receptors per cell (saturation binding) (receptors per cell) [1]: 10000 | receptors per cell (specific binding at the highest IFN-γ concentration) (receptors per cell) [2]: 6000
Substance: 125I-labeled human IFN-γ (from UniProt P01579 24-166) (ligand)

— US6969760
